Data on 18 molecules can be found in patent publication CN114651011A (dated 2022).

Substitutions are numbered along the chain they refer to.

In experiment [1] the target is T1, 人CD43 (human CD43, UMG1 epitope), endogenous on human cells, cell lines and tissues (human, UniProt P16150 20-400).
T1 construct: The cells carry the natural protein; also called UMG1表位; UMG1抗原
T1 sequence: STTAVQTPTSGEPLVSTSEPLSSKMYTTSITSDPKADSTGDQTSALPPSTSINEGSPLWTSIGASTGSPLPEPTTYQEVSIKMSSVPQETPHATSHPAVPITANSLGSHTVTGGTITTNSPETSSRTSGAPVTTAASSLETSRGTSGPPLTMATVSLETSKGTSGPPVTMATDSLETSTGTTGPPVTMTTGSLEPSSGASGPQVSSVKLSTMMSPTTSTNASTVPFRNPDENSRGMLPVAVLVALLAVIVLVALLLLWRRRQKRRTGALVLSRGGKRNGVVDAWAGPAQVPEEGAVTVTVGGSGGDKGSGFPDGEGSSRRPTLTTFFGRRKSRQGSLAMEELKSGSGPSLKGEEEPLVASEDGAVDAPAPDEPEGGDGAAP
Put plainly: flow cytometry on PBMC of healthy donors, 1 μg/ml, FITC secondary antibody.

Experiment [2] concerns the target T1, 人CD43 (human CD43, UMG1 epitope), …. Put plainly: immunofluorescence on fixed THP-1-derived macrophages without or with PANC1 cells.
Experiment [3] has as its target T2, 野生型肽 PPSTSINEGSPLWTS (aa 66-80 of human CD43), peptide of the epitope substitution scan (human).
T2 construct: also called wild-type peptide; 人CD43的线性表位，用于取代筛选
T2 peptide: PPSTSINEGSPLWTS
Put plainly: substitution scan peptide microarray, antibody at 1, 10, 100 and 250 μg/ml.

The target of experiment [4] is T3, 重组人CD43细胞外部分 (aa 20-253), produced in E. coli, not glycosylated (human, UniProt P16150 20-253).
T3 construct: also called 重组人CD43分析物(aa 20-253); CD43的无糖基化细胞外部分
T3 sequence: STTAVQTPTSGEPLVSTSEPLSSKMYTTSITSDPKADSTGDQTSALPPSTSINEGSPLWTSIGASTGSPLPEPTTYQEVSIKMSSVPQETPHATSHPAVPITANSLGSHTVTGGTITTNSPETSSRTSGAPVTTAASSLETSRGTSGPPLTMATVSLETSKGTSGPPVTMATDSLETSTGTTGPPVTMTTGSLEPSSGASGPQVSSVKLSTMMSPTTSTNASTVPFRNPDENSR
As to the kind of experiment: SPRi (PlexArray HT), antibody printed on the gold chip, recombinant CD43 aa 20-253 from E. coli as analyte, 25°C.

Experiment [5] has as its target T4, CD43#6 (CD43 with aa 64 to 78 deleted), expressed in HEK293T cells (human, UniProt P16150 20-400).
T4 construct: also called CD43克隆#6; 第五CD43变体; not shown: His tag (and GFP by the name of the vector pLenti-CMV-(insert)-Histag-GFP-2A-Puro)
T4 sequence: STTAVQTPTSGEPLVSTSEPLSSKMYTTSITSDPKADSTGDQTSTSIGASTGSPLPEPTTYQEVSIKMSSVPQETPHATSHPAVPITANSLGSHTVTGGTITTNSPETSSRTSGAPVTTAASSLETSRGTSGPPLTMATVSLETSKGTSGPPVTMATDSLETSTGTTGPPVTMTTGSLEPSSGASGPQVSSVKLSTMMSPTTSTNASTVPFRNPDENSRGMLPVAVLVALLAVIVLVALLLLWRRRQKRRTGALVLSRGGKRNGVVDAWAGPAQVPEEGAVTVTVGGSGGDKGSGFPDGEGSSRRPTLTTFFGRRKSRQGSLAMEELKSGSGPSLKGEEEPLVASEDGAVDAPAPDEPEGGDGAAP
Put plainly: FACS with h-UMG1-PE on GFP-positive transfected HEK293T cells.

Experiment [6] addresses T1, 人CD43 (human CD43, UMG1 epitope), …. Put plainly: flow cytometry (MFI) on HPB-ALL and H9 cells, 1 μg/ml, FITC mouse anti-human IgG.

B1: 单克隆抗体UMG1 (murine anti-human CD43 antibody produced by the hybridoma deposited as ICLC PD n°16001) (antibody, V domains shown)
VH: DVQLVESGGGLVQPGGSRKLSCVASGFTFSSFGMHWVRQAPEKGLEWVAYISSGSGNFYYVDTVKGRFTISRDNPKNTLFLQMTSLRSEDTAMYYCARSTYYHGSRGAMDYWGQGTSVTVSS
VL: QIALTQSPAIMSASPGEKVTMTCSASSSVSSMYWYQLKPGSSPRLLIYDTSKMASGVPIRFSGSGSGTSFSLTVSRVEAEDAATYYCQQWSSYPPITFGAGSKLELK
notes: Murine antibody, kappa light chain; the negative control is a murine IgG1; also called m-UMG1; mUMG1
Take B1: in experiment [1], the binding result was “binds”.

B2: ch-UMG1 (嵌合抗体, murine UMG1 variable regions on human IgG1 constant regions) (antibody, V domains shown)
VH: B1 VH
VL: QIALTQSPAIMSASPGEKVTMTCSASSSVSSMYWYQLKPGSSPRLLIYDTSKMASGVPIRFSGSGSGTSFSLTVSRVEAEDAATYYCQQWSSYPPITFGAGSKLELKR
notes: also called UMG1-CH; 嵌合单克隆抗体
As to B2, the binding result in experiment [2] is on record as “binds”.

B3: h-UMG1 (人源化UMG1单克隆抗体, H3-L4) (antibody, human IgG1, kappa, V domains shown)
VH: EVQLVESGGGLVQPGGSLRLSCVASGFTFSSFGMHWVRQAPGKGLEWVAYISSGSGNFYYVDTVKGRFTISRDNAKNSLYLQMNSLRAEDTAVYYCARSTYYHGSRGAMDYWGQGTLVTVSS
VL: QVVMTQSPAFLSVTPGEKVTITCSASSSVSSMYWYQLKPDQAPKLLIYDTSKMASGVPIRFSGSGSGTDFTFTVSSVEAEDAATYYCQQWSSYPPITFGGGTKVEIKR
notes: IgG1; also called h-UMG1单抗; 人源化单克隆抗CD43抗体
Take B3: the binding result was “binds” in experiment [3] and “no binding (tested: 1μg/ml)” in experiment [5]. In addition, the Kd in experiment [4] stood at 99.4 nM.

B4: 人源化UMG1抗体 H2-L1 (antibody, IgG1, V domains shown)
VH: B3 VH with A49S
VL: EIVLTQSPATLSLSPGERATLSCSASSSVSSMYWYQQKPGLAPRLLIYDTSKMASGIPDRFSGSGSGTDFTLTISRLEPEDFAVYYCQQWSSYPPITFGQGTRLEIK
notes: one of the 16 combinations of H1-4 with L1-4
As for B4, the binding result in experiment [6] is recorded as “binds”.

B5: 人源化UMG1抗体 H2-L3 (antibody, IgG1, V domains shown)
VH: B3 VH with A49S
VL: QVVMTQSPAFLSVTPGEKVTITCSASSSVSSMYWYQQKPDQAPKLLIYDTSKMASGVPSRFSGSGSGTDFTFTISSLEAEDAATYYCQQWSSYPPITFGGGTKVEIK
notes: as for B4
On to B5, for which the binding result in experiment [6] is recorded as “binds”.

B6: 人源化UMG1抗体 H2-L4 (antibody, IgG1, V domains shown)
VH: B3 VH with A49S
VL: B5 VL with Q37L, S59I, I74V, L77V
notes: as for B4
For B6, in experiment [6], the binding result is “binds”.

B7: 人源化UMG1抗体 H2-L2 (antibody, IgG1, V domains shown)
VH: B3 VH with A49S
VL: B4 VL with V3A, Q37L, D59I, I74V, L77V
notes: as for B4
On to B7, for which the binding result in experiment [6] is reported as “binds”.

B8: 人源化UMG1抗体 H3-L1 (antibody, IgG1, V domains shown)
VH: B3 VH
VL: B4 VL
notes: as for B4
With B8, the binding result in experiment [6] is “binds”.

B9: 人源化UMG1抗体 H1-L2 (antibody, IgG1, V domains shown)
VH: B3 VH with V23A, A49S
VL: B4 VL with V3A, Q37L, D59I, I74V, L77V
notes: as for B4
With B9, the binding result in experiment [6] is “binds”.

B10: 人源化UMG1抗体 H4-L2 (antibody, IgG1, V domains shown)
VH: B3 VH with E1Q, L11V, A75S, S78T
VL: B4 VL with V3A, Q37L, D59I, I74V, L77V
notes: as for B4
For the molecule B10, in experiment [6], the binding result is “binds”.

B11: 人源化UMG1抗体 H3-L2 (antibody, IgG1, V domains shown)
VH: B3 VH
VL: B4 VL with V3A, Q37L, D59I, I74V, L77V
notes: as for B4
In the case of B11, the binding result in experiment [6] is recorded as “binds”.

B12: 人源化UMG1抗体 H1-L4 (antibody, IgG1, V domains shown)
VH: B3 VH with V23A, A49S
VL: B5 VL with Q37L, S59I, I74V, L77V
notes: as for B4
In the case of B12, in experiment [6], the binding result is “binds”.

B13: 人源化UMG1抗体 H1-L1 (antibody, IgG1, V domains shown)
VH: B3 VH with V23A, A49S
VL: B4 VL
notes: as for B4
Take B13: the binding result in experiment [6] is listed as “binds”.

B14: 人源化UMG1抗体 H1-L3 (antibody, IgG1, V domains shown)
VH: B3 VH with V23A, A49S
VL: B5 VL
notes: as for B4
As for B14, the binding result in experiment [6] is given as “binds”.

B15: 人源化UMG1抗体 H4-L4 (antibody, IgG1, V domains shown)
VH: B3 VH with E1Q, L11V, A75S, S78T
VL: B5 VL with Q37L, S59I, I74V, L77V
notes: as for B4
Take B15: the binding result in experiment [6] is “binds”.

B16: 人源化UMG1抗体 H4-L1 (antibody, IgG1, V domains shown)
VH: B3 VH with E1Q, L11V, A75S, S78T
VL: B4 VL
notes: as for B4
For B16, the binding result in experiment [6] is “binds”.

B17: 人源化UMG1抗体 H4-L3 (antibody, IgG1, V domains shown)
VH: B3 VH with E1Q, L11V, A75S, S78T
VL: B5 VL
notes: as for B4
B17: in experiment [6], the binding result is given as “binds”.

B18: 人源化UMG1抗体 H3-L3 (antibody, IgG1, V domains shown)
VH: B3 VH
VL: B5 VL
notes: as for B4
Regarding B18, in experiment [6], the binding result is “binds”.
